According to patent US20190225662A1 (VIB VZW, published 2019):

B1: Sushi domain 1 of the GABAB1a receptor, purified (receptor)
chain: TSEGCQIIHPPWEGGIRYRGLTRDQVKAINFLPVDYEIEYVCRGEREVVGPKVRKCLANGSWTDMDTPSRCV
notes: also called Sushi 1; sushi1
B2: ExD-AcD fragment of APP695 (without Fc) (ligand)
chain: SVDSADAEEDDSDVWWGGADTDYADGGEDKVVEVAEEEEVADVEEEEADDDEDVEDGDEVEEEAEEPYEEATERTTSTATTTTTTTESVEEVVRVPTTAASTPD
notes: also called APP695 ExD-AcD fragment; sAPPα ExD-AcD
B3: sAPPα (Fc cleaved) (ligand)
chain: LEVPTDGNAGLLAEPQIAMFCGKLNMHMNVQNGKWESDPSGTKTCIGTKEGILQYCQEVYPELQITNVVEANQPVTIQNWCKRGRKQCKTHTHIVIPYRCLVGEFVSDALLVPDKCKFLHQERMDVCETHLHWHTVAKETCSEKSTNLHDYGMLLPCGIDKFRGVEFVCCPLAEESDSVDSADAEEDDSDVWWGGADTDYADGGEDKVVEVAEEEEVADVEEEEADDDEDVEDGDEVEEEAEEPYEEATERTTSTATTTTTTTESVEEVVRVPTTAASTPDAVDKYLETPGDENEHAHFQKAKERLEAKHRERMSQVMREWEEAERQAKNLPKADKKAVIQHFQEKVESLEQEAANERQQLVETHMARVEAMLNDRRRLALENYITALQAVPPRPHHVFNMLKKYVRAEQKDRQHTLKHFEHVRMVDPKKAAQIRSQVMTHLRVIYERMNQSLSLLYNVPAVAEEIQDEVDELLQKEQNYSDDVLANMISEPRISYGNDALMPSLTETKTTVELLPVNGEFSLDDLQPWHPFGVDSVPANTENEVEPVDARPAADRGLTTRPGSGLTNIKTEEISEVKMDAEFGHDSGFEVRHQK
notes: Made as an Fc fusion in HEK293 cells; also called soluble amyloid precursor protein α; purified sAPPα

What was measured:
sAPPα (Fc cleaved) = target: B3; assay: ITC, Sushi1 (300 µM) injected into sAPPα (30 µM), 25° C.
Method: (§1) All ITC experiments were carried out on a MicroCal iTC200 system. For ITC experiments involving APP constructs expressed in HEK293 cells, the purified GABABR1a-Sushi1 domain, sAPPα, CuBDAcD, AcD and CuBD constructs were buffer-exchanged by size exclusion chromatography in 20 mM Na-HEPES pH 7.0, 150 mM NaCl supplemented with 5 mM CaCl2. Concentrated samples were diluted and degassed before the experiment at the concentrations reported in the Fig. legends. sAPP fragments (all of them at 30 μM) were placed in the MicroCal sample cell and matching buffer was placed in the reference cell. Sushi1 (300 μM) was in the syringe and was injected into the cell in a series of 1 μL injections at 25° C. All the datasets were subtracted with a reference data consisting of serial injections of Sushi 1 in the cell, containing buffer only under the same conditions. For ITC experiments involving synthetic APP peptides, the Sushi-1 protein was dialysed overnight to PBS buffer. The 17-mer peptide was resuspended in H2O:acetonitrile (5:1) at a stock concentration of 3 mM, and diluted in PBS to 300 uM. In order to avoid buffer-buffer mismatches, the same amount of H2O:acetonitrile mixture was also added when diluting the protein to a 30 uM concentration. The 9-mer peptide was resuspended in PBS. Titrations comprised 26×1.5 μL injections of peptide into the protein, with 90 s intervals. […]

[1] = target: B2; assay: ITC, sushi1 (300 µM) injected into ExD-AcD (30 µM)
Method: as §1

[2] = target: B1; assay: ITC with purified sushi 1
Method: as §1

[3] = target: B1; assay: ITC, sushi1 (300 µM) injected into ExD-AcD (30 µM); N is the fitted stoichiometry on the Molar Ratio axis
Method: as §1

[4] = target: B1; assay: ITC, peptide (300 uM) injected into Sushi-1 protein (30 uM), PBS; 17mer peptide, APP695 204-220
Method: as §1

[5] = target: B1; assay: ITC of the synthetic peptide with purified sushi 1 (peptide injected into the protein); N is the fitted stoichiometry
Method: as §1

[6] = target: B1; assay: ITC, sushi1 (300 µM) injected into sAPPα (30 µM); N is the fitted stoichiometry on the Molar Ratio axis
Method: as §1

[7] = target: B1; assay: ITC of the synthetic peptide … (211-220) with purified sushi 1
Method: as §1

Binder: B1
- Kd (sAPPα (Fc cleaved)): 0.431 µM
- Kd [1]: 0.621 µM

Binder: B2
- molar ratio [2]: ~1
- N [3]: 1.16

Binder: DDSDVWWGGADTDYADG (also called 17AA stretch) [synthetic 17mer peptide, APP695 204-220AA]
- Kd [4]: 0.81 µM
- N [5]: 0.72

Binder: DDSDVWWGG (also called 204-212AA) [synthetic 9mer peptide, APP695 residues 204-212]
- N [5]: 0.96

Binder: B3
- N [6]: 1.12

Binder: GGADTDYADG [synthetic peptide, APP695 residues 211-220]
- binding result [7]: no binding
